Substrate: O=C(O)Cc1ccc(O)c(O)c1
Assay: purified protein
Format: biochemical, Pseudomonas aeruginosa
Settings: air-saturated (O2 ~260 μM), 50 mM sodium phosphate pH 7.5, 25 °C, Fe(II)/DTT-activated enzyme, stock kept with 0.5 mM ascorbic acid as preservative

B1: PaDHPAO (3,4-dihydroxyphenylacetate 2,3-dioxygenase) (Pseudomonas aeruginosa PAO1) (protein)
chain: MGKVALAAKITHVPSLYLSELPGPRHGCRQPAIDGHREIGRRCRELGVDTIVVFDTHWLVNAGYHINCAPHFEGLYTSNELPHFIANMEYGFPGNPELGRILAEGCNALGVETLAHDATTLGPEYGTLVPMRYMNQDRHFKVVSVSALCTVHYLNDSARLGWAMRKAVEEHYDGTVAFLASGSLSHRFAQNGQAPDFSDRIWSPFLEVLDHEVVQMWQEGRWAEFCGMLPEYASKGHGEGFMHDTAMLLGALGWSAYDGKAEVVTPYFGSSGTGQINAVFPVTAQDGSAIPAAQAGNPAGASCASRL
notes: N-terminus MGKVA from primer
Q: B1 was tested. Which Km did it give?
A: Its Km is 58 ± 8 µM.

Q: And the kcat?
A: Its kcat is 63.5 s⁻¹.

Q: What about the kcat/Km of the same protein?
A: The kcat/Km was 1.1e+06 M⁻¹ s⁻¹.

— publication PMC5291488, “3,4-Dihydroxyphenylacetate 2,3-dioxygenase from Pseudomonas aeruginosa: An Fe(II)-containing enzyme with fast turnover” (PLoS ONE, 2017)
